In general, Kd refers to the constant that tells how readily two partners part at equilibrium. A lower Kd goes with higher affinity.

The test system of data set [1] is Fab clone 5 (synthetic), PDB:6B14_1+PDB:6B3K_2. Kind of data set: filter binding.
Data set [2] relates to Fab clone 12 (synthetic), PDB:6B14_1+PDB:6B3K_2. Kind of data set: filter binding.
Data set [3] deals with Fab clone 15 (synthetic), PDB:6B14_1+PDB:6B3K_2. The data set can be described thus: filter binding.
Data set [4] deals with Fab clone 14 (synthetic), PDB:6B14_1+PDB:6B3K_2. The data set can be described thus: filter binding.
Data set [5] deals with Fab BL3-6 S97N (synthetic), PDB:6B14_1+PDB:6B14_2. Kind of data set: filter binding.
Data set [6] deals with Fab clone 6 (synthetic), PDB:6B14_1+PDB:6B3K_2. The data set can be described thus: filter binding.
In data set [7] the test system is Fab clone 9 (synthetic), PDB:6B14_1+PDB:6B3K_2. Kind of data set: filter binding.
The test system of data set [8] is Fab clone 4 (synthetic), PDB:6B14_1+PDB:6B3K_2. Kind of data set: filter binding.
For data set [9], the system named is Fab clone 17 (synthetic), PDB:6B14_1+PDB:6B3K_2. Kind of data set: filter binding.
The test system of data set [10] is Fab clone 11 (synthetic), PDB:6B14_1+PDB:6B3K_2. Kind of data set: filter binding.
Data set [11] relates to Fab clone 1 (synthetic), PDB:6B14_1+PDB:6B3K_2. The data set can be described thus: filter binding.
For data set [12], the system named is Fab clone 18 (synthetic), PDB:6B14_1+PDB:6B3K_2. Kind of data set: filter binding.
In data set [13] the test system is Fab clone 13 (synthetic), PDB:6B14_1+PDB:6B3K_2. The data set can be described thus: filter binding.
Data set [14] relates to Fab clone 3 (Fab 3) (synthetic), PDB:6B14_1+PDB:6B3K_2. Kind of data set: filter binding.
For data set [15], the system named is Fab clone 10 (Fab 10) (synthetic), PDB:6B14_1+PDB:6B3K_2. Kind of data set: filter binding.
The test system of data set [16] is Fab BL3-6 (synthetic (humanized Fab4D5 framework phage library)), PDB:6B14_1+PDB:6B3K_2. The data set can be described thus: filter binding.
For data set [17], the system named is Fab clone 2 (synthetic), PDB:6B14_1+PDB:6B3K_2. The data set can be described thus: filter binding.
The test system of data set [18] is Fab BL3-6 (synthetic (humanized Fab4D5 framework phage library)), PDB:6B14_1+PDB:6B3K_2. The data set can be described thus: hydroxyl-radical footprinting.

On to “GGCGACCAUGGAAACACCAUGGUCGC [WT-RNA HP (WT BL3-6 HP)]”, for which the Kd in [1] was determined as 28 nM; in data set [2] it was 17 nM; in data set [3], 17 nM; in data set [4], 58 nM; in [5] it was 13 nM; in data set [6], 52 nM. In addition, the Kd in [7] is 67 nM; in data set [8], 28 nM; in data set [9], 21 nM; in data set [10] it was 13 nM; in [11], 29 nM; in data set [12], 22 nM. The Kd in [13] is 25 nM; in data set [14], 25 nM; in data set [15], 28 nM.
For the sequence “GUCCAGUAGGAACACUAUACUACUGGAUAAUCAAAGACAAAUCUGCCCGAAGGGCUUGAGAACAUCGAAACACGAUGCAGAGGUGGCAGCCUCCGGUGGGUUAAAACCCAACGUUCUCAACAAUAGUGA [WT-BLP]”, the Kd in [1] worked out at 20 nM; in data set [2] it was 37 nM; in data set [3], 34 nM; in data set [4], 45 nM; in [5] it was 5 nM; in data set [6], 54 nM. The Kd turned out to be 66 nM in data set [7]; 120 nM in [16]; 29 nM in data set [8]; 42 nM in data set [9]; 37 nM in data set [10]; 50 nM in data set [17]. The Kd came out at 26 nM in data set [11]; 51 nM in [12]; 36 nM in data set [13]; 28 nM in data set [14]; 30 nM in data set [15].
With “UGCGACCAUGGUGAGACCCGCCAUGGUCGC [N9RNA1 HP (AM HP)]”, the Kd came to 8 nM in data set [1]; 7 nM in data set [2]; 10 nM in [3]; 9 nM in data set [5]; 7 nM in data set [6]; 13 nM in [7]. The Kd was 11 nM in [8]; 8 nM in data set [9]; 9 nM in [10]; 10 nM in data set [17]; 11 nM in [11]; 9 nM in data set [12]. Besides, the Kd in data set [13] was 11 nM; in data set [14], 9 nM; in data set [15], 9 nM; in data set [18], 30 nM.
